We go through three molecules from patent publication US20250129153A1 (Johns Hopkins, published 2025).

Assay [1] deals with human CTD-His (cytosolic C-terminal domain of ZnT8, C-terminal His-tag) (human) (UniProt Q8IWU4). The experiment in a line: ELISA, mAb titration on CTD (CTD-His) captured on a plate. (ELISA stands for enzyme-linked immunosorbent assay.)
Assay [2] has as its target T1, human ZnT8-His (full-length ZnT8, isoform-2, C-terminal His-tag) (human, UniProt Q8IWU4-2 1-320).
T1 construct: mature; Expressed in 293-F cells; Used detergent-solubilized on nickel-coated plates, or purified and reconstituted into DOPC/DOPE/DOPG proteoliposomes (mixed orientations); Described as a homodimer; also called flZnT8; detergent-solubilized ZnT8; not shown: C-terminal His-tag
T1 sequence (looked up): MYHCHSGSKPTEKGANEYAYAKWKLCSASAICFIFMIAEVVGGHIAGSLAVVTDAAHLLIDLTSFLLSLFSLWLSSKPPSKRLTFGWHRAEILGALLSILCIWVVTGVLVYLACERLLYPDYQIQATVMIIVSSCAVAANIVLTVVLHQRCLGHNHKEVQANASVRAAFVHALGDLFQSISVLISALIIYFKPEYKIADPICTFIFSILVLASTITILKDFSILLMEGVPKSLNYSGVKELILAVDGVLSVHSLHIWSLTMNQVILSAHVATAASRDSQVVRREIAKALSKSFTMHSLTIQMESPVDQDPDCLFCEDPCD
The experiment in a line: ELISA titration to ZnT8 proteoliposomes, hyperbolic fit (printed as binding affinity). On the procedure: (§1) Comparative ELISAs. For proteoliposome-based ELISA, 4 μg proteoliposomes (containing 5% human ZnT8-His by weight) diluted in 100 μl PBS were added to each well of a high-binding 96-well plate, and incubated overnight at 4° C. The passively immobilized proteoliposomes were blocked with 5% BSA, and then tested with hybridoma culture supernatants. For solution-based ELISA, 293-F cells expressing human ZnT8-His or CTD-His were mechanically lysed using a microfluidizer, and cleared of cell debris by ultracentrifugation. Then, 0.2 μg human ZnT8-His from detergent-solubilized cell membrane or 0.1 μg CTD-His from cell lysate in 100 μl PBS were immobilized to each well of a nickel-coated 96-well plate via the C-terminal His-tag. The immobilized protein was blocked by 5% BSA, and then tested with mouse sera in 3-fold serial dilutions or hybridoma culture supernatants. Bound serum antibodies were detected by an HRP-conjugated goat anti-mouse IgG secondary antibody (1:3000) on a Flexstation-3 microplate reader.
Lymphocytes responsible for the production of antibodies to highly conserved epitopes of ZnT8 may be eliminated during the development of self-tolerance that prevents lymphocytes from attacking self-antigens. […]

Assay [3] deals with T1, human ZnT8-His (full-length ZnT8, …). In words: ELISA, mAb titration on detergent-solubilized flZnT8 (ZnT8-His) captured on a plate.
Text: FIGS. 1A-1G show induction of anti-TMD antibodies and biochemical characterization. […] The TMD is imbedded in the lipid bilayer while the CTD is extended into the cytoplasm. […] Error bars are standard errors from 4 ZnT8-KO or 4 NOD mice, *p<0.01 (n=4). […] Note, ZnT8 in proteoliposomes adopted mixed transmembrane orientations exposing either TMD or CTD to antibody binding as indicated. Solid lines are least-square fits of binding curves to a hyperbolic function with r2>0.98.
as §1, with “The immobilized protein was blocked by 5% BSA, and then tested with mouse sera in 3-fold serial dilutions or hybridoma culture supernatants.” left out

Assay [4] concerns the target T2, mouse ZnT8 (endogenous, in mouse pancreatic islets and β-cells) (mouse, UniProt Q8BGG0 1-367).
T2 construct: whole, on cells
T2 sequence (looked up): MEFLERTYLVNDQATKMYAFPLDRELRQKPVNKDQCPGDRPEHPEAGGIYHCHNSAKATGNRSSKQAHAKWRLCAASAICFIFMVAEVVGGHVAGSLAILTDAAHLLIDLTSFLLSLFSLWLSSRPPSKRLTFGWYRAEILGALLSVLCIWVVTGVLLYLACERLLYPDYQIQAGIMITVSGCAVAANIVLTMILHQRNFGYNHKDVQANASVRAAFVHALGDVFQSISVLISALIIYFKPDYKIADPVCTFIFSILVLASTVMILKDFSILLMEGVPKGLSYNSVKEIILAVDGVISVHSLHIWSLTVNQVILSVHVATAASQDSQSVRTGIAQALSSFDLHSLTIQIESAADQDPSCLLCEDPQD
The experiment in a line: flow cytometry of live dispersed mouse pancreatic cells, chimeric mAb20 and PE anti-human IgG, DCV gate. On the procedure: Tissue dispersion and pancreatic cell labeling. Excised pancreata from C57BL/6 mice were cut into small pieces, minced, and washed with HBSS on a 70-μm strainer to remove hematopoietic cells. The washed tissue pellets were resuspended in accutase and incubated at 37° C. for 30 min. DCV was added to stain DNA of live cells. The dispersed cells were filtrated through the strainer by a gentle spin at 1200 rpm for 2 min. The remaining tissue pellets underwent additional cycles of accutase digestion and cell filtration to achieve a complete cell dispersion. The dispersed cells were pooled and washed with cold cell culture medium with DNase and trypsin/chymotrypsin inhibitors. At this point, cell viability, measured by trypan blue exclusion, was typically over 80%. […] Chimeric mAb20 was used as an isotype control.
Fluorescence activated cell sorting and confocal microscopy analysis. The labeled pancreatic cells were analyzed and sorted immediately on a MoFlo XDP cell sorter (Beckman Coulter) equipped with a 405 and 561 nm laser. Data were collected on forward scatter, side scatter, and 440 nm and 578 nm fluorescence channels. Cells gated on forward and side scatter yielded >1 million single-cell counting events. The sorted cells in R0 or R1 gate were deposited on the glass bottom of a microwell dish by a gentle centrifugation (1200 rpm, 1 min). […]

Assay [5] deals with T1, human ZnT8-His (full-length ZnT8, …). In words: ELISA titrations.
Assay [6] has as its target T3, human ZnT8 (endogenous, in EndoC-βH1 cells and human pancreatic islets) (human, UniProt Q8IWU4 1-369).
T3 sequence: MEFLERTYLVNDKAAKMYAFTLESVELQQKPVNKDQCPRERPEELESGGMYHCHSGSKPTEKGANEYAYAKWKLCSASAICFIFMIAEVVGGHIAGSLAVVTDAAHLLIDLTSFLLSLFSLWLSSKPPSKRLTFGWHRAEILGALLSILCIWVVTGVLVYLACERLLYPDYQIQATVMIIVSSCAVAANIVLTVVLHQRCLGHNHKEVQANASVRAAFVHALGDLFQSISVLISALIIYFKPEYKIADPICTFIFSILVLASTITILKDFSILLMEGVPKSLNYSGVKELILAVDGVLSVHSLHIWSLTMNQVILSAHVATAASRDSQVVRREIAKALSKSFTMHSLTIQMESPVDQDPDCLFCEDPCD
In words: cell-based or functional assay.

In assay [7] the target is T3, human ZnT8 (endogenous, in EndoC-βH1 …). In words: imaging quantification, live EndoC-βH1 cells, 8 °C (cell surface binding). On the procedure: (§2) For intracellular IF labeling, live cells were washed with a high glucose (20 mM) Krebs buffer, fixed using a flowcytometry fixation buffer for 20 min at RT, washed again using PBS, permeabilized with flowcytometry permeabilization buffer for 20 min at RT, blocked with PBS plus 5% BSA for 30 min, and then exposed to mAb43 (1:1000), mAb20 (1:1000), anti-CD71 (1:200) or anti-Na+/K+ ATPase (1:200) antibody for 2 hr at room temperature. Secondary antibody immunolabeling, DAPI counterstain and immunofluorescence imaging were performed using the same procedure as above. For experiments with wild-type INS-1E cells or ZnT8-KO INS-1E cells (13), cells were grown in RMPI 1640 medium supplied with 10% (v/v) fetal bovine serum (FBS), 100 units/ml penicillin, 100 μg/ml streptomycin, 10 mM HEPES, 2 mM glutamine, 1 mM sodium pyruvate and 50 μM β-ME. Immunofluorescence labeling and imaging followed the same procedure as above.
(§3) To track cell-surface capture of mAb43 and the ensuing ZnT8-mediated mAb43 endocytosis, a fluorescent A647 secondary antibody to label mAb20 and mAb43, and a CellMask green stain were used to demarcate the cell boundary. Live EndoC-βH1 cells were monitored for antibody surface binding and internalization. mAb43-A647 was rapidly internalized at 37° C. whereas mAb20-A647 exposure yielded no detectable signal (FIG. 5A). […]

For assay [8], the target named is T2, mouse ZnT8 (endogenous, in mouse …). In words: immunofluorescence of dispersed, fixed and permeabilized mouse islet cells.
In assay [9] the target is T3, human ZnT8 (endogenous, in EndoC-βH1 …). In words: imaging quantification, live EndoC-βH1 cells, 37 °C (surface binding and uptake). On the procedure:
as §2, §3

Assay [10] has as its target T4, rat ZnT8 (endogenous, in INS-1E cells) (rat, UniProt P0CE46 1-368).
T4 construct: whole, on cells; also called ZnT8 in rodent β-cells
T4 sequence (looked up): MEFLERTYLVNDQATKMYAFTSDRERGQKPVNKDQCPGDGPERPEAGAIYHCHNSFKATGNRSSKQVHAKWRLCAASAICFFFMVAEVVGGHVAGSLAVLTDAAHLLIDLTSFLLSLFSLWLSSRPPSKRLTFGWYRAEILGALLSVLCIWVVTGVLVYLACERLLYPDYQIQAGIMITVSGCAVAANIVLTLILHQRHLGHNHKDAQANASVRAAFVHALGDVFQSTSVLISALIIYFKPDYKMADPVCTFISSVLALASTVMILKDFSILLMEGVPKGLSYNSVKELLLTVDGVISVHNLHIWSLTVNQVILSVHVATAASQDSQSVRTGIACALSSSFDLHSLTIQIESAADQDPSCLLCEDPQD
The experiment in a line: immunofluorescence of live INS-1E cells; labeling abolished in ZnT8-knockout INS-1E cells.

B1: mAb20 (antibody, mouse IgG1, kappa, V domains shown)
VH: QIQLVQSGPELKKPGETVKISCKASGYIFTNYPMHWVKQAPGKGLKWMGWINTYSGVPTHADDFKGRFAFSLETSANSAFLQINNLKNEDTATYFCTRSRITPTGGYAMDYWGQGTSVTVSS
VL: DVVMTQTPLSLPVSLGDQASISCRSSQSLVHSNGNTYLHWYLQKPGQSPNLLISKVSNRFSGVPERFSGSGSGTDFTLKISRVEAEDLGVYFCSQNTHVPWTFGGGTKLEIKR
notes: Validated anti-CTD control antibody; also called anti-CTD mAb20; mAb20-A647 (mAb20 labeled with a fluorescent A647 secondary antibody)
Consider B1, for which the EC50 (read off the curve) – broadly, the concentration that produces a half-maximal response – in assay [1] was 0.7 nM; in assay [3], roughly 2 nM. Also, in assay [2], the Kd – broadly, a measure of binding affinity in units of concentration – was 0.57 nM.

B2: chimeric mAb20 (mouse/human) (antibody, V domains shown)
VH: B1 VH
VL: DVVMTQTPLSLPVSLGDQASISCRSSQSLVHSNGNTYLHWYLQKPGQSPNLLISKVSNRFSGVPERFSGSGSGTDFTLKISRVEAEDLGVYFCSQNTHVPWTFGGGTKLEIK
notes: also called mouse/human chimeric mAb20
With B2, the binding result in [4] was “no binding”.

B3: mAb43 (antibody, V domains shown)
VH: EVQLQQSGPELVKPGASVKIACKASGYTFTGYYMKWVKQSLGKSLEWIGDINPNNGGTNYNQHFKGKATLTVDESSSTAYMELRSLTSEDSAVYYCARGVDWIFAFWGQGTLVTVSP
VL: SIVMTQTPKFLPVSAGDRVTMTCKASQSVGNKVAWYQQKPGQSPKLLIYYATNRYTGVPDRFTGSGSGTDFTFTISSVQVEDLAVYFCQQHYSSPWTFGGGTKLEIK
notes: Hybridoma monoclonal antibody from a ZnT8-proteoliposome-immunized NOD mouse; also called mouse mAb43; anti-TMD mAb
Turning to B3, the “fold increase of mAb43 reactivity, ZnT8 in proteoliposomes against detergent-solubilized ZnT8” value in assay [5] came to 6.29 fold. Also, in assay [6], the “net mAb43-A647 uptake (difference in IF signals between 37 °C and 8 °C), fold increase by glucose stimulation (20 against 2 mM)” value was 30.9 fold. For the same molecule, the “fold increase of total mAb43-A647 IF-labeling by glucose stimulation (20 mM against 2 mM) at 8 °C” value in assay [7] stood at 15 fold. In addition, the binding result in [8] and in [10] was “binds” throughout. Also, in assay [9], the “fold increase of total mAb43-A647 IF-labeling by glucose stimulation (20 mM against 2 mM) at 37 °C” value stood at 22.1 fold. This molecule yielded a Kd in assay [2] of 0.42 nM. In addition, the “EC50 (read off the curve)” value in [3] was roughly 2 nM.
